Experiments:
[1] = target: IgK leader-ALFA Tag-RR Zip-Myc Tag-PDGFRβ TM-sfGFP; assay: flow cytometry cell binding
[2] = target: IgK leader-ALFA Tag-RR Zip-Myc Tag-PDGFRβ TM-sfGFP; assay: flow

Binder	Kd [1] [nM]	Kd [2] [nM]
BT4244-35 aa Linker-EE Zip (enzyme) FSISEEYLIQNLDKSSTSVQIPINTSMELAQWSVSYEANWLQCSKQKTAAEGTFLRITVNENTGETKRTANIKVTSTTATYTITVNQYAKGEVIVEGDIKVTPTGGKASEHQEGQDIENTYDGKFSTDGAAPFHTPWGQSAKFPVTLEYYFKGDTEIDYLIYYTRSGNGNFGKVKVYTTTNPDRSDYTLQGEYDFKEQNAPSKVSFSEGIKATGIKFEVLSGLGDFVSCDEMEFYKTNTDKTLDKQLLTVFTDITCTEIKNNVTNEQIQALPDYFVRIAEAVRDNTYDKWEKEFRIRSYEPYSNIAEWADKLMTKKYSDLDNPTGISVKAGDDIIVLVGDTYGQNISMQCIWETGTEYKQTASSGDVYMLNPGVNKLTMKGEGQLFVMYNTELTSNTAKPIKIHIPLGSGTVNGFFDLKEHKTDEKYAELLKKSTHKYFCIRGEKIMFYFHRNKLLEYVPNNILSAIHLWDNIVGWQQELMGIDDVRPSQVNNHLFAISPEGSYMWASDYQIGFVYTYLGNILLEDNVMAAEDNAWGPAHEIGHVHQAAINWASSTESSNNLFSNFIIYKLGKYKSRGNGLGSVATARYANGQAWYNMGDATHQNEDTETHMRMNWQLWIYYHRCEYKTDFWQTLFKLMREVNMTEGEDPGKKQLEFAKMASKAANQNLTDFFEMWGFFEPVNTTIEQYGTYKYYVSDAMIREAKEYMAQFPAPKHAFQYIEDRKKSEFPSNDYRYSAVGDVGYYTQFKENQKITKAITAELAGRKVSIQNGDEAVAFELRENDENGKLLYFSTFTTFEIPSSILMGGGGSGGGGSGGGGSGGGGSGGGGSGGGGSGGGGSMDPDLEIEAAFLERENTALETRVAELRQRVQRLRNRVSQYRTRYGPLGGGK	~2.54	–
AM0627-35 aa Linker-EE Zip (enzyme) ANTPEHIGNDLKLFKDSSCTSLKPDVKNTSAFQSDAMKELATKILAGHYKPDYLYAEYRALPSPRQTGKNLRIGDGFSKYDNMTGVYLEKGRHVVLVGKTEGQEISLLLPNLMRKPAEGVQPTKDPNGWGLHKKQIPLKEGINIIDVETPANAYISYFTEDAGKAPKIPVHFVTGKANGYFDTTRGDTNKDWVRLLDQAVSPIMDARGKYIQVAYPVEFLKKFTKDRGTELINAYDKLIGIQYQLMGLDKYGKIPENRVLARVNFNYYMFRDGDGVAYLGNDGTMRMVTDPENVLKGDACWGFSHEVGHVMQMRPMTWGGMTEVSNNIFSLQAAAKTGNESRLKRQGSYDKARKEIIEGEIAYLQSKDVFNKLVPLWQLHLYFTKNGHPDFYPDVMEYLRNNAGNYGGNDTVKYQFEFVKACCDVTKTDLTDFFEKWGFFKPGKFHIGDYAQYDFNVTPEMVEETKKWIAGKGYPKPETDITELSEGGGGSGGGGSGGGGSGGGGSGGGGSGGGGSGGGGSMDPDLEIEAAFLERENTALETRVAELRQRVQRLRNRVSQYRTRYGPLGGGK	~0.45	–
StcE ΔX409-35 aa Linker-EE Zip (enzyme) ADNNSAIYFNTSQPINDLQGSLAAEVKFAQSQILPAHPKEGDSQPHLTSLRKSLLLVRPVKADDKTPVQVEARDDNNKILGTLTLYPPSSLPDTIYHLDGVPEGGIDFTPHNGTKKIINTVAEVNKLSDASGSSIHSHLTNNALVEIHTANGRWVRDIYLPQGPDLEGKMVRFVSSAGYSSTVFYGDRKVTLSVGNTLLFKYVNGQWFRSGELENNRITYAQHIWSAELPAHWIVPGLNLVIKQGNLSGRLNDIKIGAPGELLLHTIDIGMLTTPRDRFDFAKDKEAHREYFQTIPVSRMIVNNYAPLHLKEVMLPTGELLTDMDPGNGGWHSGTMRQRIGKELVSHGIDNANYGLNSTAGLGENSHPYVVAQLAAHNSRGNYANGIQVHGGSGGGGIVTLDSTLGNEFSHEVGHNYGLGHYVDGFKGSVHRSAENNNSTWGWDGDKKRFIPNFYPSQTNEKSCLNNQCQEPFDGHKFGFDAMAGGSPFSAANRFTMYTPNSSAIIQRFFENKAVFDSRSSTGFSKWNADTQEMEPYEHTIDRAEQITASVNELSESKMAELMAEYAVVKVHMWNGNWTRNIYIPTASADNRGSILTINHEAGYNSYLFINGDEKVVSQGYKKSFVSDGQFWKERDVVDTREARKPEQFGVPVTTLVGYYDPEGTLSSYIYPAMYGAYGFTYSDDSQNLSDNDCQLQVDTKEGQLRFRLANHRANNTVMNKFHINVPTESQPTQATLVCNNKILDTKSLTPAPEGLTYTVNGGGGSGGGGSGGGGSGGGGSGGGGSGGGGSGGGGSMDPDLEIEAAFLERENTALETRVAELRQRVQRLRNRVSQYRTRYGPLGGGK	–	~3.09

Source: patent publication US20250152627A1 (published 2025)
